Experimental data from patent US20200062861A1.

Target: Herceptin-GlcNAc
Assay: cell-based or functional assay

**Q.** Which time dependent transglycosylation (HPLC, percent of Herceptin-GlcNAc remaining) does the source give for EndoSz-D234M (enzyme) here?
**A.** Its time dependent transglycosylation (HPLC, percent of Herceptin-GlcNAc remaining) is 0%.
